Here are results for one molecule from US20100184658A1 (published 2010).

Holding throughout (test): cell-based or functional assay
Assay [1] has as its target T1, SGK2 Serum/glucocorticoid regulated kinase 2 (UniProt Q9HBY8 1-367, limits assumed).
T1 sequence (looked up): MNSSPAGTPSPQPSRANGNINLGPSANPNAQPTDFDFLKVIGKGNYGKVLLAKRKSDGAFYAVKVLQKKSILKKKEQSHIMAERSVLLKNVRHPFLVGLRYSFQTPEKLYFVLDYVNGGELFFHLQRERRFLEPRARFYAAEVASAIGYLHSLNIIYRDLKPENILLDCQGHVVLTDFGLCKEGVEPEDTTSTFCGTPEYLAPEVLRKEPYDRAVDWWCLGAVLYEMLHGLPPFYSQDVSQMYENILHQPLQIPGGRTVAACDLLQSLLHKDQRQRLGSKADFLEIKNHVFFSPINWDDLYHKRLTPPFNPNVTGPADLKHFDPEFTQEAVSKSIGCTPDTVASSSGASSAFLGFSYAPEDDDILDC

Assay [2] deals with MELK (UniProt Q14680 1-340, limits assumed).
MELK, sequence (Q14680 1-340 limits assumed): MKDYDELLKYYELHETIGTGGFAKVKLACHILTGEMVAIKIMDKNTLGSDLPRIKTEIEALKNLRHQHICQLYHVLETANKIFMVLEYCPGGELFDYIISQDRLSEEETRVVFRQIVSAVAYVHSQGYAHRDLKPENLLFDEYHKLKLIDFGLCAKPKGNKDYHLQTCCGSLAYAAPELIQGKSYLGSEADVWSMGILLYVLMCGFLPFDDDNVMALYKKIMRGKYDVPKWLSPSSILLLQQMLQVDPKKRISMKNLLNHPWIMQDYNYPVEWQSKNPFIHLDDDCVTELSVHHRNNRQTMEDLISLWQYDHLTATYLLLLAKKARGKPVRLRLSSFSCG
Assay [3] deals with ROCK2 (UniProt O75116 5-554, limits assumed).
ROCK2, sequence (O75116 5-554 limits assumed): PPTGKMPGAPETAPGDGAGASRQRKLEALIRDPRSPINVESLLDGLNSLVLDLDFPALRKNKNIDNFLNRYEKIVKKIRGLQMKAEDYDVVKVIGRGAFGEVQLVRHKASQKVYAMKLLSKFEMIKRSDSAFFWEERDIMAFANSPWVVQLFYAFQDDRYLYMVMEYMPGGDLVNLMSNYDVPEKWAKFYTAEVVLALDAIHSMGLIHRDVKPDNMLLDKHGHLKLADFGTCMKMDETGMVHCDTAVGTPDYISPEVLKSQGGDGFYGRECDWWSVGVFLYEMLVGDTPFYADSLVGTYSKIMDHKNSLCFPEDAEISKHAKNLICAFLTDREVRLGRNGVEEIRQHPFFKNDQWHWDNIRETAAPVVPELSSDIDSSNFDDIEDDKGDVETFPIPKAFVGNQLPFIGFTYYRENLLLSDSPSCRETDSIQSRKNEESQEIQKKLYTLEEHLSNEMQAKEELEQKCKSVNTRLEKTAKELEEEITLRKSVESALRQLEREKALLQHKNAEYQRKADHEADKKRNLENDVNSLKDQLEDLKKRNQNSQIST
In assay [4] the target is PRKCQ (PKC theta) (UniProt Q04759 1-706, limits assumed).
PRKCQ (PKC theta), sequence (Q04759 whole entry): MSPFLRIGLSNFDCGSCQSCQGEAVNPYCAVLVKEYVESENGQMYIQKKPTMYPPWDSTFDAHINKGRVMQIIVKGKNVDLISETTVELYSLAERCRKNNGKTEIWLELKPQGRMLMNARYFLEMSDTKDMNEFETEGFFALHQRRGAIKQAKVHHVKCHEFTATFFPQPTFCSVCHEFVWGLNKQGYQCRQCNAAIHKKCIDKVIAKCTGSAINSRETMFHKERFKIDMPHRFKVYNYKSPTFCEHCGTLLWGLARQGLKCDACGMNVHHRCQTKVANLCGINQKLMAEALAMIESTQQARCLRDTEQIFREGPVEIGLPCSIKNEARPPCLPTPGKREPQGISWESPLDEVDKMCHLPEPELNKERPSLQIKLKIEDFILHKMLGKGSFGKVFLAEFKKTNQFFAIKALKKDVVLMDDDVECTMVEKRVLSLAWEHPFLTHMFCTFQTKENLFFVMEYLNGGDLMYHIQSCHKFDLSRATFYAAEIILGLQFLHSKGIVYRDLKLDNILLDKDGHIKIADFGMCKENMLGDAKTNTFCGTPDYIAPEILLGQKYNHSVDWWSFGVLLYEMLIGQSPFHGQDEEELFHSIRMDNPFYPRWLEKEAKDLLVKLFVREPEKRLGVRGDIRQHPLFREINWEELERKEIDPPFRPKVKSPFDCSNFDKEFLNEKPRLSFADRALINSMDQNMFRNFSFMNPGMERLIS
Assay [5] addresses STK24 (MST3) Serine/threonine kinase 24 (STE20 homolog, yeast) (UniProt Q9Y6E0 1-443, limits assumed).
Assay [6] addresses T2, ADRBK2 (GRK3) (UniProt P35626 1-688, limits assumed).
T2 sequence (looked up): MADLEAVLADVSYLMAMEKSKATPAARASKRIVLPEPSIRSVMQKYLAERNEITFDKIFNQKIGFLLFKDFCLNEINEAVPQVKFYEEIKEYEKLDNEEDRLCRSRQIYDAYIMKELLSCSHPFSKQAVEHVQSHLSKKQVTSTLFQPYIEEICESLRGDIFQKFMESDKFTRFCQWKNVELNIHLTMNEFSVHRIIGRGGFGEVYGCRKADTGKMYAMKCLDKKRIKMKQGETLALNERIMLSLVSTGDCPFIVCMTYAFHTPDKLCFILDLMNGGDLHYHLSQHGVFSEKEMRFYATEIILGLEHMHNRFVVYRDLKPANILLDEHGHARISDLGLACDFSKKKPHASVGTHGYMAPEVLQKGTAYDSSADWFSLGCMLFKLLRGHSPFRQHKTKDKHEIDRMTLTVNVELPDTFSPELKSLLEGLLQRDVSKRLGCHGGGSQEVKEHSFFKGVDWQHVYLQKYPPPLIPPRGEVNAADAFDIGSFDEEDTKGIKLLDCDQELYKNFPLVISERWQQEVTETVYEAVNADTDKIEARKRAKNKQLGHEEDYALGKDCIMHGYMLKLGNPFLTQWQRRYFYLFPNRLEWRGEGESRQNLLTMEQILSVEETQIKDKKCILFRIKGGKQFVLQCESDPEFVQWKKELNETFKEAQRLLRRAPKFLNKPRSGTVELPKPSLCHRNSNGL

For assay [7], the target named is MAPK8 (JNK1) Mitogen-activated protein kinase 8 (UniProt P45983 1-427, limits assumed).
MAPK8 (JNK1) Mitogen-activated protein kinase 8, sequence (P45983 whole entry): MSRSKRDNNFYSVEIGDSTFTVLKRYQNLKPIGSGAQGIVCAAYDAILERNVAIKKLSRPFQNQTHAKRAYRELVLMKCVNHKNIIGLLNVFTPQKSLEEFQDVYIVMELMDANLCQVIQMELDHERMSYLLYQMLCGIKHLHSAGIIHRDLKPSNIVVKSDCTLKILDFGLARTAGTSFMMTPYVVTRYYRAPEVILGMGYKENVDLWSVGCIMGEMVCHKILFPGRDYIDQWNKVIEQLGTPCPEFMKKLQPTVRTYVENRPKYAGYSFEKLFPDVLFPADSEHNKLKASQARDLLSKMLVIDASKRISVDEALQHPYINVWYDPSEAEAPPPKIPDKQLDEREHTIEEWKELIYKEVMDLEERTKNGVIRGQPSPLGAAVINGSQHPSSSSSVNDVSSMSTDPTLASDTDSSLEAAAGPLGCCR
Assay [8] addresses MAPK14 (p38 alpha) Mitogen-activated protein kinase 14 (UniProt Q16539 1-360).
Assay [9] deals with T3, STK3 (MST2) Serine/threonine kinase 3 (STE20 homolog, yeast) (UniProt Q13188 1-491, limits assumed).
T3 sequence (looked up): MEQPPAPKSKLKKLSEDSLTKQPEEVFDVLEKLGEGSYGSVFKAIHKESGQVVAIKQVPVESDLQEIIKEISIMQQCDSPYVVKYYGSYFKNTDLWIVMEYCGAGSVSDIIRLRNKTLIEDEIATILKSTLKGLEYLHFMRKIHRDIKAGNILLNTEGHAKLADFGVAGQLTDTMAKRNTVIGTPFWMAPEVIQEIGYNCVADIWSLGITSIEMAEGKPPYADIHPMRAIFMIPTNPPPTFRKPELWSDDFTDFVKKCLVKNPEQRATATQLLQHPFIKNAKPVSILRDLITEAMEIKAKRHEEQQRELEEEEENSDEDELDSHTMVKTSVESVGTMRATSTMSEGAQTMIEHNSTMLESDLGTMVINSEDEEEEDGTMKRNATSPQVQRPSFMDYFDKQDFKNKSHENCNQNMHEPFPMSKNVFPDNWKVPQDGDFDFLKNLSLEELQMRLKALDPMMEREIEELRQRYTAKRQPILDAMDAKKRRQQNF

Assay [10] addresses MAP4K5 (KHS1) (UniProt Q9Y4K4 1-846, limits assumed).
Also: test concentration or dose not given here.

MAP4K5 (KHS1), sequence (Q9Y4K4 whole entry): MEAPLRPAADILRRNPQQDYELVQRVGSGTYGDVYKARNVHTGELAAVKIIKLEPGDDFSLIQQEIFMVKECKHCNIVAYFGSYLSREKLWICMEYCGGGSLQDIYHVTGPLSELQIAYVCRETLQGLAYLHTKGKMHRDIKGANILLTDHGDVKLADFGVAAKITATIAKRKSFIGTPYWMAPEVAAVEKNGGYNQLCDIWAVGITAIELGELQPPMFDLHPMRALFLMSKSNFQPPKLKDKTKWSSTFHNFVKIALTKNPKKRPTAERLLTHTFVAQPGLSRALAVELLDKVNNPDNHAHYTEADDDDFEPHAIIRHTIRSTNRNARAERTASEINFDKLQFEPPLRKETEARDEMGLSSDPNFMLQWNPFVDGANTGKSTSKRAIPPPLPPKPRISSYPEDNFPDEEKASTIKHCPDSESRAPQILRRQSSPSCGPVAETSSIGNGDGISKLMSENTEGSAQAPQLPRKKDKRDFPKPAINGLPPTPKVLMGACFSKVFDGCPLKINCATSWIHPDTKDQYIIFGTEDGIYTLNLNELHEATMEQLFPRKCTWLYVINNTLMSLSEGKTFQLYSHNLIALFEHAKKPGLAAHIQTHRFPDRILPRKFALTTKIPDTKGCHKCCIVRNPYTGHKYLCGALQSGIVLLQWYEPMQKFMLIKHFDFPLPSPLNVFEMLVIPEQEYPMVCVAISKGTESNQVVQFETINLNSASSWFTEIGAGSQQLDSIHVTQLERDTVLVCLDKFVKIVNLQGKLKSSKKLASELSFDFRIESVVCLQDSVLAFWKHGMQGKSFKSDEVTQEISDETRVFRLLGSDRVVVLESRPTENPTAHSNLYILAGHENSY
MAPK14 (p38 alpha) Mitogen-activated protein kinase 14, sequence (Q16539 whole entry): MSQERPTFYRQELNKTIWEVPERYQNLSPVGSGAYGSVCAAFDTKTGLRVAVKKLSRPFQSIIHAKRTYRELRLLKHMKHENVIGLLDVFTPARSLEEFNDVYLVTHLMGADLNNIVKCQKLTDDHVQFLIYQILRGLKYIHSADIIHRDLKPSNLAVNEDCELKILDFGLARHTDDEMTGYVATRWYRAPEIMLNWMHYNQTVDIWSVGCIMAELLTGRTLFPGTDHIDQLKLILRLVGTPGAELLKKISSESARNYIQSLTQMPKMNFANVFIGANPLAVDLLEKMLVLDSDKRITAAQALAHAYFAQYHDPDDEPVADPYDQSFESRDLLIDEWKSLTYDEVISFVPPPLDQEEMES
STK24 (MST3) Serine/threonine kinase 24 (STE20 homolog, yeast), sequence (Q9Y6E0 whole entry): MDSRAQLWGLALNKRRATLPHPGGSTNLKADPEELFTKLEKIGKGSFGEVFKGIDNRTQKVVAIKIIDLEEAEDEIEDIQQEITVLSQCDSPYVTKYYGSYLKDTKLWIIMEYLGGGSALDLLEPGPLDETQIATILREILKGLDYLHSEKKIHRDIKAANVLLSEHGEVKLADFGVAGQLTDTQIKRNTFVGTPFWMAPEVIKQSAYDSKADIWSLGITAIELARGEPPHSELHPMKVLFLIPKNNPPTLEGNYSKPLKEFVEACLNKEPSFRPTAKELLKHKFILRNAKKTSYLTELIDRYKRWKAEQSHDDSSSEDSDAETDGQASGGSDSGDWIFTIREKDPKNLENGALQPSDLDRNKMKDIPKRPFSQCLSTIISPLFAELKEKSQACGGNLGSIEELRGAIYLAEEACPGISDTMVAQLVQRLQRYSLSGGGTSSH

For the molecule SGRPPMIVWFNRPFLIAVSHTHGQTILFMAKVINPVGA [D3 peptide], the “% Inhibition mean” value is 102% in assay [1]; 85.8% in assay [2]; 66.7% in assay [3]; 86.3% in assay [4]; 98.6% in assay [5]; 66.7% in assay [6]. The “% Inhibition mean” value in assay [7] was found to be 89%; in [8] it was 83%; in assay [9], 90.4%; in [10], 86.3%.
